Key:
human IgG1 = experiment: ELISA, IgG1 antibody coated on plate, detection with Strep-Tactin-HRP
[1] = molecular target: Polyclonal human IgG Gammanorm (human); experiment: Fc binding protein coupled to Praesto Pure45 agarose beads; polyclonal human IgG Gammanorm (2.2 mg/ml) loaded; mass of hIgG injected at 10% breakthrough, 6 min residence time

Row | Kd (human IgG1) | Substance | dynamic binding capacity [1]
1 | 3.4 nM | Protein A domain Z | 
2 |  | R PROTEIN A | 37.4 mg/mL

— patent US20230340069A1
